Reference: paper PMC4081096, “GtrS and GltR form a two-component system: the central role of 2-ketogluconate in the expression of exotoxin A and glucose catabolic enzymes in Pseudomonas aeruginosa” (Nucleic Acids Research, 2014)

Experiments:
[1] = tested on: GltR (Pseudomonas aeruginosa PAO1); assay: EMSA; settings: EMSA: 2 nM 32P-DNA, 50 mM Tris-HCl pH 7.5, 10 mM NaCl, 0.5 M Mg acetate (so in the source), 0.1 mM EDTA, 1 mM DTT, 5% glycerol, 20 ug/ml poly(dI-dC), 200 ug/ml BSA …
[2] = target: T1, GltR (Pseudomonas aeruginosa PAO1) (UniProt G3XCY6); assay: EMSA; settings: EMSA: 2 nM 32P-DNA, 50 mM Tris-HCl pH 7.5, 10 mM NaCl, 0.5 M Mg acetate (so in the source), 0.1 mM EDTA, 1 mM DTT, 5% glycerol, 20 ug/ml poly(dI-dC), 200 ug/ml BSA …
T1 sequence: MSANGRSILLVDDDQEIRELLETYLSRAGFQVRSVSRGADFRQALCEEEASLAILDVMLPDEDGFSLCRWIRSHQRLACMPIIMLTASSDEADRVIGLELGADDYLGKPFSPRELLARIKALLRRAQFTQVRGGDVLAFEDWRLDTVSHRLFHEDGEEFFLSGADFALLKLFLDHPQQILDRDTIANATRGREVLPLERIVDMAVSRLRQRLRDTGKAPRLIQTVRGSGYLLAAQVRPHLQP

[3] = target: T2, GtrS (Pseudomonas aeruginosa, UniProt Q9HZ47); assay: isothermal titration calorimetry with purified recombinant GtrS-LBD; type: binding
[4] = target: T2, GtrS; assay: isothermal titration calorimetry with purified recombinant GtrS-LBD; 2-KG also accelerates autophosphorylation of full-length GtrS in membranes; type: binding

T2 sequence (Q9HZ47 30-197): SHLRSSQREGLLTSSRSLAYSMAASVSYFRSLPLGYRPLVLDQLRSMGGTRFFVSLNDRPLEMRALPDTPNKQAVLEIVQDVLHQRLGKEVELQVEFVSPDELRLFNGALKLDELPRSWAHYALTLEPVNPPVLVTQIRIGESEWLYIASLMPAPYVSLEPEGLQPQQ

Compound	K half [1]	further results
Pglk promoter fragment	1000 nM	
PtoxA promoter fragment	1000 nM	
AGATCTTGCAGCTTTACCGAGAGCCTCAACGGCTGGCGCTGATTCTGATAGGTCGATATCCGCCGGCGCTTGGCTGGCGGCTGTCTCTCCGGCAACATCTGCCGACCGTCCCGCCCTGGCGCGGGGCATTGCGGTTCAACGACGATGAATAACGACAACAAGAGAAGCGCCGGCGGCCTCGGCCTGGTCGGCGATATCGCTGCAG (double strand) [Pglk promoter fragment]		K half [2]: 1000 nM
O=C(O)[C@H](O)[C@@H](O)[C@H](O)[C@H](O)COP(=O)(O)O [6PG, 6-phosphogluconate]		Kd [3]: 98 ± 33 µM
O=C(O)C(=O)[C@@H](O)[C@H](O)[C@H](O)CO [2-KG, 2-ketogluconate]		Kd [4]: 4.95 ± 0.8 µM
Pedd/gap-1 promoter fragment	1000 nM	
PoprB promoter fragment	1000 nM	
